Data on two molecules can be found in publication PMC4284922.

In one experiment the target is STAT1 (Homo sapiens) (UniProt P42224). Nature of the experiment: analytical ultracentrifugation. The conditions noted are these: cited from earlier work.
The target in experiment [1] is T1, untagged STAT1, wild type (human), P42224.
T1 chain: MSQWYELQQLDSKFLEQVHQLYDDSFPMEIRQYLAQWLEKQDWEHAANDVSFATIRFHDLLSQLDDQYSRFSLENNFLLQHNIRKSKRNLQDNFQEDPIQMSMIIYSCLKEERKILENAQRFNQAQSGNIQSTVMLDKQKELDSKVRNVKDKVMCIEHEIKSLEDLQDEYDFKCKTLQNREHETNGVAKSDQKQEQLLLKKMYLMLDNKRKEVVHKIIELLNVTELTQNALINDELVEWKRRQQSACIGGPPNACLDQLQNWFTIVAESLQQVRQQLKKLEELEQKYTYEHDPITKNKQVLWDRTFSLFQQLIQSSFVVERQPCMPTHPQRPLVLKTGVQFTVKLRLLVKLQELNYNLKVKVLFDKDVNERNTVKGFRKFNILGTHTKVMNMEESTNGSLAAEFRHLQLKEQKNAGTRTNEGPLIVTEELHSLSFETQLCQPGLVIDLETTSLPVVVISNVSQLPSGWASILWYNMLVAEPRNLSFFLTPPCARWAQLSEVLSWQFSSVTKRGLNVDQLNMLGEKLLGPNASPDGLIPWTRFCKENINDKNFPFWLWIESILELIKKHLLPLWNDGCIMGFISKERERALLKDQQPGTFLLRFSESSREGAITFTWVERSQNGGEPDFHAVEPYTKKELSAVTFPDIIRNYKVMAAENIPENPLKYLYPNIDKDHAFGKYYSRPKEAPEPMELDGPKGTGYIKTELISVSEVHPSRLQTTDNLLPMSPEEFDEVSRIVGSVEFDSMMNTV
Put plainly: native gel or EMSA; extracts with GFP-tagged and with untagged STAT1 mixed and co-incubated for 0, 15 or 30 min at room temperature with [33P]-labelled M67 (single GAS site); band of intermediate mobility. The settings on record: remark: other sources report otherwise. On the technique in general: In EMSA bound probe runs differently from free probe, usually more slowly.

With STAT1 (from UniProt P42224), the equilibrium dissociation constant (Kd) with STAT1 (Homo sapiens) is 50 nM.

B1: untagged STAT1, wild type, P42224 1-750 (natural protein)
chain: T1 chain
modifications: here or on the partner: phosphotyrosine at 701 (tyrosine-phosphorylated, from IFNγ-stimulated cells); phosphotyrosine at 701 (tyrosine-phosphorylated, from IFNγ-stimulated cells)
For B1, in experiment [1], the half-life of the dimer is over 10 min.

In general, Kd refers to the equilibrium constant for the complex coming apart.
